Results on two molecules are retold here after patent US20240141039A1 (AGENUS, published 2024).

Experiment [1] addresses T1, wild type full-length human CD96 isoform 2 expressed on CHO cells (human, UniProt P40200-2 22-569).
T1 construct: whole, on cells; also called human CD96-CHO (isoform 2); human CD96 (iso2) CHO cells
T1 sequence (looked up): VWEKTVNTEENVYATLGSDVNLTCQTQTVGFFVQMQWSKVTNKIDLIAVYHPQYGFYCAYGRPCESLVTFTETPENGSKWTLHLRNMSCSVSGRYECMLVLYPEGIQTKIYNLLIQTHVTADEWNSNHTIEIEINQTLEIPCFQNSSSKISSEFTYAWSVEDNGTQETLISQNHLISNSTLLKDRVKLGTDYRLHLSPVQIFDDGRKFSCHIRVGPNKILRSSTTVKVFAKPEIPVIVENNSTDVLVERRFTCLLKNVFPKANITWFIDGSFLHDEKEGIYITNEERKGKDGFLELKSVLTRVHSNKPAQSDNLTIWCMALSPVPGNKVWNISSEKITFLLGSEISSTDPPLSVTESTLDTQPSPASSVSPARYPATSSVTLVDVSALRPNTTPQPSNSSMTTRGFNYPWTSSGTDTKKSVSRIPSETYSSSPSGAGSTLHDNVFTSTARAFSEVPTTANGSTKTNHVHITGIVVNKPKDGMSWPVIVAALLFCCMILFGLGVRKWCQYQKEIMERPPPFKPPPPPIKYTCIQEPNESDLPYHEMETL
The experiment in a line: flow cytometry on CHO cells expressing human CD96 isoform 2, PE anti-human IgG Fc detection. The protocol: (§1) For the antibody binding assay, a frozen aliquot of human CD96-CHO cells (isoform 1 or isoform 2) was thawed at 37° C. and then transferred to a tube containing DPBS supplemented with 0.5% Bovine Serum Albumin and 0.05% Sodium Azide (FACS Buffer). Cells were centrifuged at 300 g for five minutes. The supernatant was discarded, and cells resuspended in FACS buffer were seeded in a 96-well U-bottom tissue culture plate at a density of 2×10⁵ cells per well in 50 μL. In a separate microplate, a 2× concentrated intermediate stock of each antibody was prepared. Antibodies were serially diluted 1-to-3 in FACS buffer. A total of 11 working dilutions ranging from 60 μg/mL to 0.001 μg/mL were prepared. Fifty microlitres of each dilution were then transferred to the microplate containing human CD96-CHO cells. The cells were then incubated for 45 minutes at 4° C. […] After a 30-minute incubation on ice, the cells were washed twice with cold FACS Buffer, and the cells were analyzed by flow cytometry (BD LSR Fortessa Flow Cytometer). The data were analyzed using the FlowJo software by sequentially gating the FSC-A vs. SSC-A, and SSC-H vs. SSC-A. Mean fluorescence intensity (MFI) values for PE were calculated, and the data were plotted by GraphPad Prism software.

Experiment [2] concerns the target T1, wild type full-length human CD96 …. The experiment is described as follows: flow cytometry, human CD96 (isoform 2) CHO cells, geomean of 2 experiments. As to the method: as §1
(In flow cytometry, cells or beads pass a laser one at a time.)

Experiment [3] addresses T2, full-length human FcγRIIIa variant V/V expressed on CHO cells (human, UniProt P08637 17-254).
T2 construct: whole, on cells; also called human FcγRIIIa-CHO (variant V/V); human FcγRIIIa (V/V) CHO cells
The experiment is described as follows: flow cytometry, human FcγRIIIa (V/V) CHO cells, geomean of 2 experiments. The protocol:
(§2) The ability of anti-TIGIT×CD96 multispecific molecules to bind to variant V/V or variant F/F of human FcγRIIIa expressed on the surface of CHO cells was assessed. Briefly, CHO cells were transfected with a vector encoding full-length human FcγRIIIa (human FcγRIIIa-CHO) variant V/V or F/F, and clones stably expressing FcγRIIIa (variant V/V or variant F/F) were selected.
as §1, with “human FcγRIIIa-CHO (variant V/V or variant F/F)” for “human CD96-CHO”, “cells” for “cells (isoform 1 or isoform 2)”, “each multispecific molecule” for “each antibody”, “prepared.” for “prepared. Antibodies were serially diluted 1-to-3 in FACS buffer. A total of 11 working dilutions ranging from 60 μg/mL to 0.001 μg/mL were prepared. Fifty microlitres of each dilution were then transferred to the microplate containing human CD96-CHO cells. The cells were then incubated for 45 minutes at 4° C.”

For experiment [4], the target named is T2, full-length human FcγRIIIa variant V/V …. The experiment in a line: flow cytometry on CHO cells expressing human FcγRIIIa variant V/V, PE anti-human IgG Fc detection. As to the method:
as §2
as §1, with “human FcγRIIIa-CHO (variant V/V or variant F/F)” for “human CD96-CHO”, “cells” for “cells (isoform 1 or isoform 2)”, “each multispecific molecule” for “each antibody”, “prepared.” for “prepared. Antibodies were serially diluted 1-to-3 in FACS buffer. A total of 11 working dilutions ranging from 60 μg/mL to 0.001 μg/mL were prepared. Fifty microlitres of each dilution were then transferred to the microplate containing human CD96-CHO cells. The cells were then incubated for 45 minutes at 4° C.”

T2 sequence (P08637 other isoform, or with tags, fused parts or gaps mutant limits assumed): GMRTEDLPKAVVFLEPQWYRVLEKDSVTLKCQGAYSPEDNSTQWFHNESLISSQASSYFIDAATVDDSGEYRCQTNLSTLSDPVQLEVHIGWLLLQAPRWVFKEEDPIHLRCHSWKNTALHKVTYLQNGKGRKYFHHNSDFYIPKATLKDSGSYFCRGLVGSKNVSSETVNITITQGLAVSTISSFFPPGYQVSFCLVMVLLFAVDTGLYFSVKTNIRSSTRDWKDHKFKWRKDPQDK

B1: anti-TIGIT×CD96 multispecific molecule BA123 (bispecific antibody, human IgG1, kappa, lambda)
heavy 1: QVQLVQSGAEVKKPGASVKVSCKASGYTFTSYGISWVRQAPGQGLEWMGWISAYNANTNYAQKLQGRVTMTTDTSTSTAYMELRSLRSDDTAVYYCARSAGVLGGMDVWGRGTLVTVSSASTKGPSVFPLAPSSKSTSGGTAALGCLVKDYFPEPVTVSWNSGALTSGVHTFPAVLQSSGLYSLSSVVTVPSSSLGTQTYICNVNHKPSNTKVDKRVEPKSCDKTHTCPPCPAPELLGGPDVFLFPPKPKDTLMISRTPEVTCVVVDVSHEDPEVKFNWYVDGVEVHNAKTKPREEQYNSTYRVVSVLTVLHQDWLNGKEYKCKVSNKALPAPIEKTISKAKGQPREPQVYTLPPSREEMTKNQVSLSCAVKGFYPSDIAVEWESNGQPENNYKTTPPVLDSDGSFFLVSKLTVDKSRWQQGNVFSCSVMHEALHNHYTQKSLSLSPG
light 1: not shown
heavy 2: EVQLVQSGAEVKKPGSSVKVSCKASGYTFASYGISWVRQAPGQGLEWMGGITPFFNRVDVAEKFQGRVTITADKSTSTAYIELSSLRSEDTAVYYCARDLRRGGVGDAFDIWGRGTLVTVSSASTKGPSVFPLAPSSKSTSGGTAALGCLVKDYFPEPVTVSWNSGALTSGVHTFPAVLQSSGLYSLSSVVTVPSSSLGTQTYICNVNHKPSNTKVDKRVEPKSCDKTHTCPPCPAPELLGGPDVFLFPPKPKDTLMISRTPEVTCVVVDVSHEDPEVKFNWYVDGVEVHNAKTKPREEQYNSTYRVVSVLTVLHQDWLNGKEYKCKVSNKALPLPEEKTISKAKGQPREPQVYTLPPSREEMTKNQVSLWCLVKGFYPSDIAVEWESNGQPENNYKTTPPVLDSDGSFFLYSKLTVDKSRWQQGNVFSCSVMHEALHNHYTQKSLSLSPG
light 2: QSALTQPRSVSGSPGQSVTISCTGTSPDVGSHAYRSWYQQHPGKAPKLMIYEVSYRPSGVSNRFSGSKSGNTASLTISGLQAEDEADYYCSSYPPSSATVFGAGTKLTVLGQPKAAPSVTLFPPSSEELQANKATLVCLISDFYPGAVTVAWKADSSPVKAGVETTTPSKQSNNKYAASSYLSLTPEQWKSHRSYSCQVTHEGSTVEKTVAPTEC
notes: copies: 1 + 1 + 1 + 1
One may read the EC50 (read off the curve) as the concentration at which the effect is half-maximal. The low end stands for an effect from little substance, the high end for a need for much substance. As a reminder, the EC50 is the concentration at which the effect is half-maximal. A low value points to greater potency. For B1, the concentration giving a half-maximal response (EC50 (read off the curve)) was about 0.2 µg/mL in experiment [1] and about 0.3 µg/mL in experiment [4]. In addition, the EC50 was determined as 0.196 µg/mL in experiment [2] and 0.189 µg/mL in experiment [3].

B2: anti-TIGIT×CD96 multispecific molecule BA127 (bispecific antibody, human IgG1, kappa, lambda)
heavy 1: QVQLVQSGAEVKKPGASVKVSCKASGYTFTTYALHWVRQAPGQRLEWMGWINTGSGDTKYSQKFQGRVTITRDTSASTAYMELSSLRSEDTAVYYCARSLGVYYGMDVWGQGTLVTVSSASTKGPSVFPLAPSSKSTSGGTAALGCLVKDYFPEPVTVSWNSGALTSGVHTFPAVLQSSGLYSLSSVVTVPSSSLGTQTYICNVNHKPSNTKVDKRVEPKSCDKTHTCPPCPAPELLGGPDVFLFPPKPKDTLMISRTPEVTCVVVDVSHEDPEVKFNWYVDGVEVHNAKTKPREEQYNSTYRVVSVLTVLHQDWLNGKEYKCKVSNKALPAPIEKTISKAKGQPREPQVYTLPPSREEMTKNQVSLSCAVKGFYPSDIAVEWESNGQPENNYKTTPPVLDSDGSFFLVSKLTVDKSRWQQGNVFSCSVMHEALHNHYTQKSLSLSPG
light 1: not shown
heavy 2: EVQLVQSGAEVKKPGSSVKVSCKASGYTFASYGISWVRQAPGQGLEWMGGITPFFNRVDVAEKFQGRVTITADKSTSTAYIELSSLRSEDTAVYYCARDLRRGGVGDAFDIWGRGTLVTVSSASTKGPSVFPLAPSSKSTSGGTAALGCLVKDYFPEPVTVSWNSGALTSGVHTFPAVLQSSGLYSLSSVVTVPSSSLGTQTYICNVNHKPSNTKVDKRVEPKSCDKTHTCPPCPAPELLGGPDVFLFPPKPKDTLMISRTPEVTCVVVDVSHEDPEVKFNWYVDGVEVHNAKTKPREEQYNSTYRVVSVLTVLHQDWLNGKEYKCKVSNKALPLPEEKTISKAKGQPREPQVYTLPPSREEMTKNQVSLWCLVKGFYPSDIAVEWESNGQPENNYKTTPPVLDSDGSFFLYSKLTVDKSRWQQGNVFSCSVMHEALHNHYTQKSLSLSPG
light 2: QSALTQPRSVSGSPGQSVTISCTGTSPDVGSHAYRSWYQQHPGKAPKLMIYEVSYRPSGVSNRFSGSKSGNTASLTISGLQAEDEADYYCSSYPPSSATVFGAGTKLTVLGQPKAAPSVTLFPPSSEELQANKATLVCLISDFYPGAVTVAWKADSSPVKAGVETTTPSKQSNNKYAASSYLSLTPEQWKSHRSYSCQVTHEGSTVEKTVAPTEC
notes: Anti-CD96 arm = BA139, anti-TIGIT arm = BA150; copies: 1 + 1 + 1 + 1
As to B2, the figures for the “EC50 (read off the curve)” value in experiment [1] and in experiment [4] were about 0.03 µg/mL and about 0.2 µg/mL, respectively. Further, the concentration giving a half-maximal response (EC50) amounted to 0.0951 µg/mL in experiment [2] and 0.148 µg/mL in experiment [3].
